This is an account of results in PMC4720780, “Fruit Ripening Regulation of α-Mannosidase Expression by the MADS Box Transcription Factor RIPENING INHIBITOR and Ethylene”.

This series has as its target RIN (RIPENING INHIBITOR, MADS box) (Solanum lycopersicum, UniProt Q8S4L4 1-242). Briefly: EMSA; 10 mM MgCl2; 20 mM HEPES pH 7.5, 20% glycerol, 0.05 ug poly(dI-dC), 10 mM MgCl2, 2.5 mM EDTA, 2.5 mM DTT, 25 mM NaCl, 25 C, 30 min; 6% native PAGE 0.5x TBE. The following applies: protein: recombinant; chain copies: 2; label: 32P (alpha-32P dCTP Klenow fill-in); filled-in ends. In general terms: In EMSA bound probe runs differently from free probe, usually more slowly.

Chain of RIN (RIPENING INHIBITOR, MADS box) (Q8S4L4 entry or part of it): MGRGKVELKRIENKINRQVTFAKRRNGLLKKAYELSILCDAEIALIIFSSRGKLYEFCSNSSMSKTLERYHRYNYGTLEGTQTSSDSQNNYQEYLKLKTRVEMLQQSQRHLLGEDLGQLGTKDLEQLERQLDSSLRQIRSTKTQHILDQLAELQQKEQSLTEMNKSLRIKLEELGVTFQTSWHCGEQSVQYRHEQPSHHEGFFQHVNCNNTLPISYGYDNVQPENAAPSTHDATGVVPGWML

B1: alpha-Man promoter fragment MD4 (187 bp) (dsDNA)
DNA 1: GAAGACTTCACAAATCTTGATTTTTGAATACGACCCTTTAGTATTAAGTTTTCCAATTAATCTTGTAGGTCCATTGGCTTTGATTCCCTTTCTTGATTTATCTACAAAAATTTAGGCTATTTATAGAGATTTGGGGTTTATGGTTTAGTACATTCTCTTTCAGTGAACACTCTCAGCAATGGTGGAA
DNA 2: TTCCACCATTGCTGAGAGTGTTCACTGAAAGAGAATGTACTAAACCATAAACCCCAAATCTCTATAAATAGCCTAAATTTTTGTAGATAAATCAAGAAAGGGAATCAAAGCCAATGGACCTACAAGATTAATTGGAAAACTTAATACTAAAGGGTCGTATTCAAAAATCAAGATTTGTGAAGTCTTC
Turning to B1, the binding result was “binds”.
